Drawing on PMC9082959, “Mechanism of Assembly of the Non-Covalent Spectrin Tetramerization Domain from Intrinsically Disordered Partners” (Journal of molecular biology, 2013), this text covers Ka and koff for one molecule.

Usually koff stands for a measure of how fast the partners let go of each other.

What all share (conditions): both partners purified
One experiment has as its target T1, β16β17 D39A (human, UniProt P11277 1898-2083, D2042A).
T1 construct: erythrocyte β-spectrin, human, residues 1898-2083 (β16β17); mutant of m2; also called D2042A; source: E. coli C41(DE3), purified (Ni2+ agarose, thrombin cleavage, gel filtration)
T1 sequence (looked up): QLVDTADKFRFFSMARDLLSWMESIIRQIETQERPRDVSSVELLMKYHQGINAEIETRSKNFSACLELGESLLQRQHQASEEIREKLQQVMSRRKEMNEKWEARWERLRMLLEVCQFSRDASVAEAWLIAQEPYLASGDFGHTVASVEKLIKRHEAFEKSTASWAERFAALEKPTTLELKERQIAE
In words: ITC; β16β17 at 25–50 μM in the cell titrated with 15–20 injections to 2–2.5 eq of α0α1; one-site binding model; PBS (50 mM sodium phosphate, 150 mM NaCl, pH 7.04), 25 °C; mutants only against the wild-type partner. In general terms: ITC needs no label: the signal is the heat of the interaction.

The next experiment concerns the target T2, β16β17 S16A (human, UniProt P11277 1898-2083, S2019A).
T2 construct: erythrocyte β-spectrin, human, residues 1898-2083 (β16β17); mutant of m2; also called S2019A; source: E. coli C41(DE3), purified (Ni2+ agarose, thrombin cleavage, gel filtration)
T2 sequence (looked up): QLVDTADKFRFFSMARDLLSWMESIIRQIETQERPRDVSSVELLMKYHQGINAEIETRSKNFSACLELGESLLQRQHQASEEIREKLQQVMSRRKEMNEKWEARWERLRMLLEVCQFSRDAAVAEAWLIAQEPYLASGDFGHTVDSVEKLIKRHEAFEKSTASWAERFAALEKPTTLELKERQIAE
Described as above.

The target of another experiment is T3, β16β17 K46A (human, UniProt P11277 1898-2083, K2049A).
T3 construct: erythrocyte β-spectrin, human, residues 1898-2083 (β16β17); mutant of m2; also called K2049A; source: E. coli C41(DE3), purified (Ni2+ agarose, thrombin cleavage, gel filtration)
T3 sequence (looked up): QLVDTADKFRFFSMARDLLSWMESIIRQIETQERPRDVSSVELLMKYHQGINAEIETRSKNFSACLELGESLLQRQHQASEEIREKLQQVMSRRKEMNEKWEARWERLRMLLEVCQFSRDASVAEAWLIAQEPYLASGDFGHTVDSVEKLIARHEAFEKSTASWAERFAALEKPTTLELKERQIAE
The experiment is described as above.

In a further experiment the target is T4, β16β17 C9G (human, UniProt P11277 1898-2083, C2012G).
T4 construct: erythrocyte β-spectrin, human, residues 1898-2083 (β16β17); mutant of m2; also called C2012G; source: E. coli C41(DE3), purified (Ni2+ agarose, thrombin cleavage, gel filtration)
T4 sequence (looked up): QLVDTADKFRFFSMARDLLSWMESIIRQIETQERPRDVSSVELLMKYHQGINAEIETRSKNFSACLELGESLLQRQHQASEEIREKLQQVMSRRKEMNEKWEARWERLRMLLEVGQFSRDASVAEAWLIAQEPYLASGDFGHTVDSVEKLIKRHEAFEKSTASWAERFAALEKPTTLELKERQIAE
The experiment is described as above.

The target of another experiment is T5, β16β17 R13G (human, UniProt P11277 1898-2083, R2016G).
T5 construct: erythrocyte β-spectrin, human, residues 1898-2083 (β16β17); mutant of m2; also called R2016G; source: E. coli C41(DE3), purified (Ni2+ agarose, thrombin cleavage, gel filtration)
T5 sequence (looked up): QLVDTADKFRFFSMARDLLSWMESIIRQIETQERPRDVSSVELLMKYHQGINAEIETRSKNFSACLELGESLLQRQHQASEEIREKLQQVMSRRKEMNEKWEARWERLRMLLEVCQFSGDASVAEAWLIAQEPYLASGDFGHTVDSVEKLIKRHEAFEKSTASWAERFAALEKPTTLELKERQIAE
Described as above.

Experiment [1] deals with T6, β16β17 (erythrocyte β-spectrin residues 1898–2083), wild type (human, UniProt P11277 1898-2083).
T6 construct: erythrocyte β-spectrin, human, residues 1898-2083 (β16 plus the incomplete 17th domain); synthetic gene (GenScript) in a modified pRSETA plasmid; source: E. coli C41(DE3), purified (Ni2+ agarose, thrombin cleavage, gel filtration)
T6 sequence (looked up): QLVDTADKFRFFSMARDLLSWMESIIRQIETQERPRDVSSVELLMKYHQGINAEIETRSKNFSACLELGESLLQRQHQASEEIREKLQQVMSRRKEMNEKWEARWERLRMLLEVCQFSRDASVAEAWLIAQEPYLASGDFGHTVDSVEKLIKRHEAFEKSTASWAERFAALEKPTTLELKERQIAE
In words: stopped-flow intrinsic tryptophan fluorescence (dissociation/unfolding kinetics); wild type; observed rate constants for tetramer dissociation calculated from folding and unfolding experiments in urea; k− in water with mk− 1.44 M^-1; PBS, 25 °C.

B1: α0α1 (erythrocyte α-spectrin residues 2–163), wild type (domain or fragment, human, UniProt P02549 2-163, looked up)
chain: EQFPKETVVESSGPKVLETAEEIQERRQEVLTRYQSFKERVAERGQKLEDSYHLQVFKRDADDLGKWIMEKVNILTDKSYEDPTNIQGKYQKHQSLEAEVQTKSRLMSELEKTREERFTMGHSAHEETKAHIEELRHLWDLLLELTLEKGDQLLRALKFQQY
notes: synthetic gene (GenScript) in a modified pRSETA plasmid; also called α1α0; source: E. coli C41(DE3), purified (Ni2+ agarose, thrombin cleavage, gel filtration)
Regarding B1, the Ka was 470000 M⁻¹ in the experiment with β16β17 D39A; 490000 M⁻¹ with β16β17 S16A; 520000 M⁻¹ with β16β17 K46A; 470000 M⁻¹ with β16β17 C9G; 71000 M⁻¹ with β16β17 R13G. Also, the off-rate (koff) in experiment [1] is 0.00025 s⁻¹.
